Test results as given in patent US6576455B1, “Structure-based designed herbicide resistant products” (priority 1995, dated 2003).
Where a chain is given by its changes, count along the chain named.

T1: Maize AHAS (Zea mays, UniProt Q41769)
T1 construct: residue #2 corresponds to the putative amino terminus of the mature protein, i.e., after removal of a chloroplast targeting peptide; GST (glutathione S-transferase, pGEX-2T) (N, cleaved yes); made in house; host or cells: E. coli (DH5α), pGEX-2T vector pAC751
T1 sequence (Q41769 40-638): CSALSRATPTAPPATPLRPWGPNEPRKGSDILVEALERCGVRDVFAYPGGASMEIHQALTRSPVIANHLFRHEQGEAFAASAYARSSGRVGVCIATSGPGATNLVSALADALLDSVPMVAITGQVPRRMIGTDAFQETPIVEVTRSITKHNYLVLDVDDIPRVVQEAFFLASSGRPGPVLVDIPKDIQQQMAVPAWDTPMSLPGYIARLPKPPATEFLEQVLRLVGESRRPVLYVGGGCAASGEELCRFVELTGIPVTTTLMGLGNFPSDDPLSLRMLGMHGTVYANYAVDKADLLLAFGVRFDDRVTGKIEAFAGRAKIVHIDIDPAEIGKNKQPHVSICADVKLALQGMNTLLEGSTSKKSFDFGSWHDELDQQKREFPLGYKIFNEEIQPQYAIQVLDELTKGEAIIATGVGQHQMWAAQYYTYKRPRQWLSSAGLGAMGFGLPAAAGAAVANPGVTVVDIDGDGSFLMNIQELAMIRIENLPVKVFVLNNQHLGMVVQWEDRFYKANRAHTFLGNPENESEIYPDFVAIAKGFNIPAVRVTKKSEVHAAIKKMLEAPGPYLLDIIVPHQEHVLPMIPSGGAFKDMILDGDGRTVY

B1: Maize AHAS: wild type maize AHAS expressed from pAC751 in E. coli and purified, 65 kD (SEQ ID NO:1) (protein)
chain: GSAASPAMPMAPPATPLRPWGPTDPRKGADILVESLERCGVRDVFAYPGGASMEIHQALTRSPVIANHLFRHEQGEAFAASGYARSSGRVGVCIATSGPGATNLVSALADALLDSVPMVAITGQVPRRMIGTDAFQETPIVEVTRSITKHNYLVLDVDDIPRVVQEAFFLASSGRPGPVLVDIPKDIQQQMAVPVWDKPMSLPGYIARLPKPPATELLEQVLRLVGESRRPVLYVGGGCARSGEELRRFVELTGIPVTTTLMGLGNFPSDDPLSLRMLGMHGTVYANYAVDKADLLLALGVRFDDRVTGKIEAFASRAKIVHVDIDPAEIGKNKQPHVSICADVKLALQGMNALLEGSTSKKSFDFGSWNDELDQQKREFPLGYKYSNEEIQPQYAIQVLDELTKGEAIIGTGVGQHQMWAAQYYTYKRPRQWLSSAGLGAMGFGLPAAAGASVANPGVTVVDIDGDGSFLMNVQELAMIRIENLPVKVFVLNNQHLGMVVQWEDRFYKANRAHTYLGNPENESEIYPDFVTIAKGFNIPAVRVTKKNEVRAAIKKMLETPGPYLLDIIVPHQEHVLPMIPSGGAFKDMILDGDGRTVY
modifications: Zea Mays
B2: Met124Ile: Arabidopsis AHAS variant (and gene) with Met124Ile mutation, corresponding to maize Met53Ile; vector pJK002 (protein, UniProt P17597 56-670, looked up, variant M124I)
Acetolactate synthase, …: SSSPSSISAVLNTTTNVTTTPSPTKPTKPETFISRFAPDQPRKGADILVEALERQGVETVFAYPGGASIEIHQALTRSSSIRNVLPRHEQGGVFAAEGYARSSGKPGICIATSGPGATNLVSGLADALLDSVPLVAITGQVPRRMIGTDAFQETPIVEVTRSITKHNYLVMDVEDIPRIIEEAFFLATSGRPGPVLVDVPKDIQQQLAIPNWEQAMRLPGYMSRMPKPPEDSHLEQIVRLISESKKPVLYVGGGCLNSSDELGRFVELTGIPVASTLMGLGSYPCDDELSLHMLGMHGTVYANYAVEHSDLLLAFGVRFDDRVTGKLEAFASRAKIVHIDIDSAEIGKNKTPHVSVCGDVKLALQGMNKVLENRAEELKLDFGVWRNELNVQKQKFPLSFKTFGEAIPPQYAIKVLDELTDGKAIISTGVGQHQMWAAQFYNYKKPRQWLSSGGLGAMGFGLPAAIGASVANPDAIVVDIDGDGSFIMNVQELATIRVENLPVKVLLLNNQHLGMVMQWEDRFYKANRAHTFLGDPAQEDEIFPNMLLFAAACGIPAARVTKKADLREAIQTMLDTPGPYLLDVICPHQEHVLPMIPSGGTFNDVITEGDGRIKY
B3: Arg199Glu: Arabidopsis AHAS variant (and gene) with Arg199Glu mutation, corresponding to maize Arg128Glu; vector pJK004 (protein, UniProt P17597 56-670, looked up, variant R199E)
Acetolactate synthase, …: B2 Acetolactate synthase, … with I69M, R144E
B4: Met124His: Arabidopsis AHAS variant (and gene) with Met124His mutation, corresponding to maize Met53His; vector pJK003 (protein, UniProt P17597 56-670, looked up, variant M124H)
Acetolactate synthase, …: B2 Acetolactate synthase, … with I69H

Columns and labels:
[1] = molecular target: T1, Maize AHAS; assay: Enzymatic activity and cofactor dependence of purified maize AHAS expressed from pAC751; type: biochemical
Experimental: E. coli (DH5α) cells transformed with the pGEX-2T vector containing either the maize wild type AHAS gene (vector designation pAC751), the Arabidopsis Ser653Asn mutant, or the Arabidopsis Ile401Phe mutant were grown overnight in LB broth containing 50 μg/mL ampicillin. The overnight culture of E. coli was diluted 1:10 in 1 L LB, 50 μg/mL ampicillin, and 0.1% v/v antifoam A. The culture was incubated at 37° C. with shaking until the OD600 reached approximately 0.8. Isopropylthiogalactose (IPTG) was added to a final concentration of 1 mM and the culture was incubated for 3 more hours.
Cells were harvested by centrifugation at 8,670×g for 10 minutes in a JA-10 rotor and resuspended in 1/100th of the original culture volume in MTPBS (16 mM Na2HPO4, 4 mM NaH2PO4, 150 mM NaCl, pH 7.3). Triton X-100 and lysozyme were added to a final concentration of 1% v/v and 100 μg/mL, respectively. Cells were incubated at 30° C. for 15 minutes cooled to 4° C. on ice, and were lysed by sonication for 10 seconds at level 7 with a Branson Sonifier Cell Disrupter equipped with a microtip probe. The cell free extract was centrifuged at 35,000×g for 10 min. at 4° C. The supernatant was decanted and the centrifugation step was repeated.
Purification of expressed fusion proteins was performed as modified from Smith and Johnson (Gene 67:31-40, 1988). […]

[2] = type: physicochemical, Zea mays
Experimental: The fusion protein was digested overnight at room temperature. Digested samples were dialyzed against MTPBS and passed twice through a glutathione-agarose column equilibrated in MTPBS to remove the released glutathione transferase protein. […] The concentrated sample was loaded onto a 1.5×95 cm Sephacryl S-100 gel filtration column equilibrated in gel filtration buffer (50 mM HEPES, 150 mM NaCl, pH 7.0). Two mL fractions were collected at a flow rate of 0.14 mL/min. Enzyme stability was tested by storage of the enzyme at 4° C. in gel filtration buffer with the addition of 0.02% sodium azide and in the presence or absence of 2 mM thiamine pyrophosphate and 100 μM flavin adenine dinucleotide (FAD).
Maize AHAS expressed and purified from pAC751 as described in Example 3 above is active in the conversion of pyruvate to acetolactate. Full AHAS activity is dependent on the presence of the cofactors FAD and TPP in the assay medium. […] The activity of the purified enzyme with TPP only, or with no cofactors, was less than 1% of the activity detected in the presence of both TPP and FAD. Normally, AHAS present in crude plant extracts is very labile, particularly in the absence of substrate and cofactors.

[3] = system: Arabidopsis AHAS protein; settings: no herbicide; for Specific Activity: b134 expresses specific activity as units/mg pure AHAS, 1 unit = 1 μmole acetolactate produced/hour; for % Catalytic Activity as Compared to Wild Type: relative to wild-type AHAS
Experimental: (a) specific or catalytic activity for conversion of pyruvate to acetolactate (expressed as units/mg pure AHAS, wherein a unit of activity is defined as 1 μmole acetolactate produced/hour), or for condensation of pyruvate and 2-ketobutyrate to form acetohydroxybutyrate (expressed as units/mg pure AHAS, wherein a unit of activity is defined as 1μ mole acetohydroxybutyrate produced/hr.;
(§1) The enzymatic properties of wild-type and variant AHAS produced in E. coli were measured by a modification of the method of Singh et al. (Anal. Biochem […]:173-179, 1988) as follows:
(§2) A reaction mixture containing 1× AHAS assay buffer (50 mM HEPES pH 7.0, 100 mM pyruvate, 10 mM MgCl2, 1 mM thiamine pyrophosphate (TPP), and 50 μM flavin adenine dinucleotide (FAD)) was obtained either by dilution of enzyme in 2× assay buffer or by addition of concentrated enzyme to 1× AHAS assay buffer. All assays containing imazethapyr and associated controls contained a final concentration of 5% DMSO due to addition of imazethapyr to assay mixtures as a 50% DMSO solution. Assays were performed in a final volume of 250 μL at 37° C. in microtiter plates. After allowing the reaction to proceed for 60 minutes, acetolactate accumulation was measured […] as described by Singh et al., Anal. Biochem 171:173-179, 1988.

[4] = system: Arabidopsis AHAS protein; settings: increasing concentrations of imazethapyr, 5% DMSO; FIGS. 7, 9, 10, 11
Experimental: as §1, §2

[5] = system: tobacco plants; assay: Spraying of transformed tobacco plants with imazethapyr; type: in vivo, Nicotiana tabacum cv. Wisconsin 38; settings: twice the field rate (100 g/ha) of imazethapyr
Experimental: Leaf disc transformation of Nicotiana tabacum cv. Wisconsin 38 was performed as described by Horsch et al. (Science, 227: 1229-1231, 1985) with slight modifications. Leaf discs were cut from plants grown under sterile conditions and co-cultivated upsidedown in Murashige Skoog media (Sigma Chemical Co., St. Louis, Mo.) for 2-3 days at 25° C. in darkness with Agrobacterium tumefaciens strains containing plasmids pJK002, pJK003, or pJK004. The discs were blotted dry and transferred to regeneration Murashige Skoog medium with B5 vitamins containing 1 mg/L benzyladenine and 0.1 mg/l 1-Napthyl Acetic Acid, 100 mg/L kanamycin, and 500 mg/L cefotaxime (all obtained from Sigma).
Kanamycin-resistant tobacco shoots were transferred to medium containing a 0.25 μM imazethapyr.

Molecule | AHAS activity when only FAD was added to the assay medium ([1]; FAD only, no TPP) | activity with TPP only, or with no cofactors, relative to activity in the presence of both TPP and FAD ([1]; TPP only or no cofactors) | degradation products in SDS-PAGE gels after storage [2] | catalytic activity after storage ([2]; one month at 4° C. in 50 mm HEPES pH 7.0, 150 mM NaCl, 0.02% NaN3, presence or absence of FAD and TPP) | Specific Activity [3] | % Catalytic Activity as Compared to Wild Type [3] | resistance of enzymatic activity to imazethapyr (PURSUIT) [4] | resistance of transformed tobacco plants to spraying with imazethapyr [5]
B1 | No activity was detected | less than 1% | no degradation products were visible | no lose in catalytic activity |  |  |  | 
B2 |  |  |  |  | 102 | 102% | significant level of imidazolinone resistance | resistant
B3 |  |  |  |  | 114 | 114% | improved levels of resistance | resistant
B4 |  |  |  |  | 42.5 | 42.6% | high degree of resistance | 
